# Laboratory results published in paper PMC10279719 (Nature Communications, 2023).
# T1: PEAK2^IDR1 (residues 802-1406), from insect cells (human, UniProt Q86YV5 802-1406, phosphorylation of the tandem site 14-3-3 motif (RAASSP) found by proteomic analysis; biotin (EZ-Link NHS-PEG4-Biotin, 1:1 molar ratio))
# T1 construct: human PEAK2 (SgK223, PRAG1), UniProt Q86YV5, residues 802-1406; Purifies as a homodimer
# T1 sequence (looked up): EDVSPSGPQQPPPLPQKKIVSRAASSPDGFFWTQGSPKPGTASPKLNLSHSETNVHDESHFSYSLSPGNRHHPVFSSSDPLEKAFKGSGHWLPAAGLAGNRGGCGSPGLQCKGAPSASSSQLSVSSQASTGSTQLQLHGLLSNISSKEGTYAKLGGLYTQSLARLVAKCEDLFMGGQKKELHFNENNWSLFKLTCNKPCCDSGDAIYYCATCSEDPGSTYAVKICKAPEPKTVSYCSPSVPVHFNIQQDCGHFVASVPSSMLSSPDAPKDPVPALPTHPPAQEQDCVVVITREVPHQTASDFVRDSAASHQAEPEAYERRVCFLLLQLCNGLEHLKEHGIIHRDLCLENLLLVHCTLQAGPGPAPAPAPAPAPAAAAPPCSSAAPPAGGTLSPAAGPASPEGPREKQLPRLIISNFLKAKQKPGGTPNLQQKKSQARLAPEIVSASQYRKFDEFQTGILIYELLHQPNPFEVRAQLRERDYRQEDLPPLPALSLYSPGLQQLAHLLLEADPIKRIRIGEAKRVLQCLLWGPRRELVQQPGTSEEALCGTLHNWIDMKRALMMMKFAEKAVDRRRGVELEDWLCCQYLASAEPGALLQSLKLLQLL
# T2: PEAK2^IDR1 (residues 802-1406), from insect cells, phosphorylated by Src (human, UniProt Q86YV5 802-1406, phosphorylated with Src kinase, sites not stated; phosphorylation of the tandem site 14-3-3 motif (RAASSP) found by proteomic analysis; biotin (EZ-Link NHS-PEG4-Biotin, 1:1 molar ratio))
# T2 construct: human PEAK2 (SgK223, PRAG1), UniProt Q86YV5, residues 802-1406; also called PEAK2-IDR1 (+ Src phosphorylation); source: Sf21 insect cells, purified; phosphorylated in vitro with recombinant Src kinase domain
# T2 sequence (looked up): T1 sequence (looked up)
# T3: full length PEAK3 (PEAK3^FL, residues 1-473), from insect cells, phosphorylated by Src (human, UniProt Q6ZS72 1-473, phosphoserine at S69; phosphotyrosine at Y24 (by Src in vitro, shown by MS/MS); other Src sites not stated; biotin (EZ-Link NHS-PEG4-Biotin, 1:1 molar ratio))
# T3 construct: As Sm27, with Src phosphorylation before immobilisation; also called PEAK3-FL (+ Src phosphorylation); source: Sf21 insect cells, purified as a complex with insect 14-3-3ε,ζ; phosphorylated in vitro with recombinant Src kinase domain
# T3 sequence (looked up): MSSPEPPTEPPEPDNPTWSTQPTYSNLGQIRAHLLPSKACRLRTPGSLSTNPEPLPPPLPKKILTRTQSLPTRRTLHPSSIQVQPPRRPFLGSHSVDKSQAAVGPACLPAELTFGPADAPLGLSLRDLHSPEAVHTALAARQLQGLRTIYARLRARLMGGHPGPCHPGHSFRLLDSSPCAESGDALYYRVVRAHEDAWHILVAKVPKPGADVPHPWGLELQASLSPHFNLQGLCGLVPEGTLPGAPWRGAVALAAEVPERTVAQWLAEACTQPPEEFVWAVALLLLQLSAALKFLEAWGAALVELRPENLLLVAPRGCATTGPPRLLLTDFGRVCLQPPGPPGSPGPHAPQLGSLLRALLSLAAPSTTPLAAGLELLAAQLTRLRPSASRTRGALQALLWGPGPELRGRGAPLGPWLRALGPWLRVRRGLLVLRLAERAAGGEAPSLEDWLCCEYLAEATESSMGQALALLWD
# T4: PEAK3 tandem peptide, non-phosphorylated (residues 54-74) (human, N-terminal acetyl; C-terminal amide)
# T4 construct: source: synthetic peptide, bought: Mimotopes (95% purity)
# T4 peptide: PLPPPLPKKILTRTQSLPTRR
# B1: CrkII N-terminal SH3 domain (CrkII^NSH3, residues 134-191) (domain or fragment, human, UniProt P46108-1 134-191, looked up)
# chain: AEYVRALFDFNGNDEEDLPFKKGDILRIRDKPEEQWWNAEDSEGKRGMIPVPYVEKYR
# notes: human CrkII NSH3 domain, UniProt P46108-1, residues 134-191; Amine coupled to a CM5 chip in a2; analyte in a4; in the syringe in ITC
# Legend:
# Conditions in all cases: both partners purified
# [1] = target: T1, PEAK2^IDR1 (residues 802-1406), from …; experiment: SPR; biotinylated PEAK proteins (with or without Src phosphorylation) captured with a biotin CAPture kit, CrkII NSH3 as analyte; Biacore 8K+, 20 °C, HBS-TP (150 mM NaCl); 1 M NaCl regeneration; steady state
# [2] = target: T2, PEAK2^IDR1 (residues 802-1406), from …; experiment: as above
# [3] = target: T3, full length PEAK3 (PEAK3^FL, residues …); experiment: as above
# [4] = target: T4, PEAK3 tandem peptide, …; experiment: ITC; second of two sequential titrations ('ternary'); CrkII NSH3 (400 µM) in the syringe titrated into the non-phosphorylated PEAK3 tandem peptide (16.8 µM) with the 14-3-3γ of the first titration, which did not bind, still in the cell; 25 °C, 20 mM HEPES pH 7.4, 150 mM NaCl, 1 mM TCEP
binder,measurement,setting,value
B1,Kd,[1],4.79 µM
same,Kd,[2],5.2 µM
same,Kd,[3],6.84 µM
same,stoichiometry N,[4],0.654
